From paper PMC3293397 (Biochemistry, 2012) come the findings set out here.

The data set deals with the molecule itself. The experiment in a line: crystal structure.

B1: S. elongatus KaiC E318A mutant protein (enzyme, Synechococcus elongatus PCC 7942, UniProt Q79PF4 1-519, looked up)
chain: MTSAEMTSPNNNSEHQAIAKMRTMIEGFDDISHGGLPIGRSTLVSGTSGTGKTLFSIQFLYNGIIEFDEPGVFVTFEETPQDIIKNARSFGWDLAKLVDEGKLFILDASPDPEGQEVVGGFDLSALIERINYAIQKYRARRVSIDSVTSVFQQYDASSVVRRELFRLVARLKQIGATTVMTTERIEEYGPIARYGVEEFVSDNVVILRNVLEGERRRRTLEILKLRGTSHMKGEYPFTITDHGINIFPLGAMRLTQRSSNVRVSSGVVRLDEMCGGGFFKDSIILATGATGTGKTLLVSRFVENACANKERAILFAYAESRAQLLRNAYSWGMDFEEMERQNLLKIVCAYPESAGLEDHLQIIKSEINDFKPARIAIDSLSALARGVSNNAFRQFVIGVTGYAKQEEITGLFTNTSDQFMGAHSITDSHISTITDTIILLQYVEIRGEMSRAINVFKMRGSWHDKAIREFMISDKGPDIKDSFRNFERIISGSPTRITVDEKSELSRIVRGVQEKGPES
modifications: phosphothreonine at T432 in five of the six subunits; no S431 phosphorylated
For B1, the binding result is on record as “binds”.
